How the values were obtained:
[1] = tested on: EGFR, HER2, HER3, HER4, downstream signaling, apoptosis and cell-cycle proteins in MDA-MB-175-VII cells; assay: Western blotting of protein phosphorylation and expression; type: cell-based, human
Procedure: (§1) Whole-cell extracts were prepared after all treatments and subjected to SDS-PAGE, followed by immunoblotting for the phosphorylated (p) or total (t) proteins shown in each panel. All Western blotting studies were conducted at least two times and representative immunoblots of phosphorylated (p) and total (t) proteins are shown.
(§2) These events likely culminate in inhibition of growth and impaired survival.
As observed with phosphor-ylation of some proteins, cyclin D1 level began to be restored by 12 hours (FIG. 4D).

CTG-0943 PDX tumors = assay: Pancreatic adenocarcinoma PDX model (APP-NRG1); type: in vivo, mice
Procedure: Mice bearing CTG-0943 PDX tumors (5-8 mice per group) were treated with indicated agents (FIG. 8A). Representative H&E-stained slides of a vehicle-treated tumor (FIG. 8B). Tumor volume, results represent the mean±SEM. […] Change in the volume of individual tumors (vehicle: day 20; treated groups: day 31) compared with day 0(%) (FIG. 8D). Western blot analysis of vehicle, and afatinib and seribantumab-treated tumors. Tumor residues extracted day 24 for vehicle-, day 31 for seribantumab-, and day 32 for afatinib-treated groups. Antibody reactivity with human (H) and/or mouse (M) proteins is indicated.
(§3) Models of isogenic pancreatic cancer cells with NRG1 fusions by lentiviral-mediated cDNA expression of ATP1B1-NRG1 and SLC3A2-NRG1 fusions in immortalized human pancreatic ductal cells (H6c7) were developed. […] Western blotting analysis was used to evaluate protein phosphorylation and expression. The presence of NRG1 fusions was confirmed by reverse transcription polymerase chain reaction (RT-PCR) and next-generation sequencing (NGS).
There was no regression of afatinib-treated pancreatic PDX tumors. […] This was confirmed using a human-specific GAPH antibody.

[2] = tested on: HER2, HER3, EGFR and downstream effectors in HCC-95 cells; assay: Western blotting of protein phosphorylation; type: cell-based, human
Excerpt: as §2

[3] = n=847 patients treated; cited from earlier work
CH-17-0068 PDX tumors = assay: Intrahepatic cholangiocarcinoma PDX model (RBPMS-NRG1); type: in vivo, mice; conditions: monotherapy seribantumab 5 mg and 10 mg per dose BIW vs afatinib 5 mg/kg QD
Procedure: Representative H&E-stained CH-17-0068 PDX tumor (FIG. 9A). Genomic alterations identified by RNAseq and corresponding investigational targeted therapies (FIG. 9B). […] Afatinib (5 mg/kg QD) or AG-120 (isocitrate dehydrogenase [IDH] inhibitor, 150 mg/kg twice daily [BID]) were then added to the indicated groups. Results represent the mean±SEM. Change in the volume of individual tumors on day 30 (FIG. 9D) or at the end of the study (FIG. 9E).
as §3

[4] = tested on: EGFR, HER2, HER3, HER4, PI3K, mTOR and MAPK pathways in HBECp53-CD74-NRG1 cells; assay: Western blotting of protein phosphorylation; type: cell-based, human; conditions: serum-starved, 1 hour
Procedure: as §1, §2

[5] = tested on: EGFR, HER2, HER3, HER4, PI3K, mTOR and MAPK pathways in LUAD-0061AS3 cells; assay: Western blotting of protein phosphorylation; type: cell-based, human; conditions: serum-starved, 1 hour
Procedure: as §1, §2

MDA-MB-175-VII cells = assay: Time-course growth by cell counting; type: cell-based, human
Procedure: (§4) Expression of […] (FIG. 1A) or SLC3A2-NRG1 (FIG. 2B) fusions in MDA-MB-175-VII and LUAD-0061AS3 cells, respectively, was determined by RT-PCR. The HBECp53 (NRG1 fusion negative) and HBECp53-SLC3A2-NRG1 cells were used as negative and positive controls, respectively. […] Viability results represent the mean±SEM of 2-5 independent experiments in which each condition was assayed in triplicate determinations. Viability data were analyzed by nonlinear regression and the IC50 values for growth inhibition and the 95% confidence interval were determined with GraphPad Prism 8. […] Results represent the mean±SD for one experiment in which each condition was assayed in duplicate.
(§5) For the time-course experiments, cells were plated at a density of 5,000 (HCC-95) or 10,000 (all others) cells per well in 12-well tissue culture plates, and then treated 24 hours later (time 0) with the respective agents. […] Cells were trypsinized and counted at the relevant time-point shown on the graphs. For dose-response studies, cells were plated at a density of 7,500-10,000 cells in white clear-bottom 96-well plates in a volume of […] complete growth media and […] chemicals added at 10× concentration (to achieve 1× concentration) in a final volume of […]. After 96-hour incubation, […] AlamarBlue cell viability reagent was added to achieve a final concentration of 10%. AlamarBlue is a cell permeable […] dye that is reduced when it enters the mitochondria and emits fluorescence at a different wavelength (Gloeckner H, J. Immunol. Methods 2001; 252:131-8). Fluorescence was measured (excitation, 530 nm and emission, 585 nm) using a […] Spectramax M2 Fluorescence Plate Reader, as described previously (Somwar R, J. Biomol. Screen 2009; 14:1176-84). In each experiment, background fluorescence was determined in cells treated with […] of the 20S proteasome inhibitor, carfilzomib, which is toxic to most cells at high concentrations, and was subtracted from all values. There were 3-4 replicates of each condition. Relative IC50 values and 95% confidence interval values were determined by nonlinear regression analysis using GraphPad Prism 8 software using either a variable slope model or in cases where inhibition was only partial, a three-parameter fit was used. […] Each condition was assayed in triplicate in 2-5 independent experiments.
(§6) In these experiments, the MDA-MB-175 and LUAD-0061AS3 cell lines, isogenic HBECp53 cells ectopically expressing a CD74-NRG1 fusion, and the NRG1-amplified lung cancer cell line, HCC-95 (FIGS. 1E-H) were used. […] Afatinib sensitivity of HCC-95 cells was not examined in this study.

HBECp53-CD74-NRG1 cells = assay: Time-course growth by cell counting; type: cell-based, human; conditions: highest concentration of seribantumab
Procedure: as §4, §5, §6

HCC-95 cells = assay: Time-course growth by cell counting; type: cell-based, human; conditions: lowest antibody concentration
Procedure: as §4, §5, §6

[6] = 5 mg or 10 mg twice weekly seribantumab

B1: seribantumab: anti-ERBB3 (HER3) fully human monoclonal antibody; heavy and light chains SEQ ID NOs: 12 and 13 (antibody)
heavy: EVQLLESGGGLVQPGGSLRLSCAASGFTFSHYVMAWVRQAPGKGLEWVSSISSSGGWTLYADSVKGRFTISRDNSKNTLYLQMNSLRAEDTAVYYCTRGLKMATIFDYWGQGTLVTVSSASTKGPSVFPLAPCSRSTSESTAALGCLVKDYFPEPVTVSWNSGALTSGVHTFPAVLQSSGLYSLSSVVTVPSSNFGTQTYTCNVDHKPSNTKVDKTVERKCCVECPPCPAPPVAGPSVFLFPPKPKDTLMISRTPEVTCVVVDVSHEDPEVQFNWYVDGVEVHNAKTKPREEQFNSTFRVVSVLTVVHQDWLNGKEYKCKVSNKGLPAPIEKTISKTKGQPREPQVYTLPPSREEMTKNQVSLTCLVKGFYPSDIAVEWESNGQPENNYKTTPPMLDSDGSFFLYSKLTVDKSRWQQGNVFSCSVMHEALHNHYTQKSLSLSPGK
light: QSALTQPASVSGSPGQSITISCTGTSSDVGSYNVVSWYQQHPGKAPKLIIYEVSQRPSGVSNRFSGSKSGNTASLTISGLQTEDEADYYCCSYAGSSIFVIFGGGTKVTVLGQPKAAPSVTLFPPSSEELQANKATLVCLVSDFYPGAVTVAWKADGSPVKVGVETTKPSKQSNNKYAASSYLSLTPEQWKSHRSYSCRVTHEGSTVEKTVAPAECS
phosphorylation of AKT over time ([1]; 2 mmol/L seribantumab, up to 24 hours): remained completely inhibited for the entire 24-hour treatment period | expression of proapoptotic proteins cleaved-PARP and PUMA ([1]; seribantumab, 6-24 hours): elevated | level of cyclin D1 ([1]; seribantumab, up to 24 hours): undetectable by 6 hours | time to full inhibition of phosphorylation of HER3, HER4, and downstream signaling ([1]; seribantumab, up to 24 hours): 30 min | phosphorylation of HER3, HER2, EGFR, and HER4 ([1]; serum-starved, 3 hours): fully inhibited | tumor growth (CTG-0943 PDX tumors; [6]): Tumor growth inhibition was observed | tumor shrinkage (CTG-0943 PDX tumors; [6]): up to 55% | tumor shrinkage, range (CTG-0943 PDX tumors; [6]): 23-77% | proteins in residual tumors by Western blotting (CTG-0943 PDX tumors; seribantumab-treated tumors, end of study (day 31)): Loss of phosphorylated and total EGFR, HER2 and HER3, cyclin D1 | efficacy compared with afatinib (CTG-0943 PDX tumors; two doses of seribantumab vs afatinib 5 mg/kg QD): more effective than afatinib | EGFR phosphorylation [2]: little effect | phosphorylation of HER2, HER3, and downstream effectors [2]: inhibited phosphorylation | grade of infusion related reactions [3]: Grade 1 or 2 | patients experiencing an infusion related reaction [3]: < 1% | efficacy compared with afatinib (CH-17-0068 PDX tumors): equally effective as afatinib | HER3 phosphorylation [4]: completely inhibited | phosphorylation of AKT, p70S6K, and STAT3 [4]: almost completely inhibited | phosphorylation of EGFR, HER2, HER3, HER4, AKT, and STAT3 [5]: almost complete inhibition | phosphorylation of ERK1/2 [5]: less sensitive | time at which growth was slowed after start of treatment (MDA-MB-175-VII cells; seribantumab 0.1, 1, 10 μmol/L): 24 h | cell growth over time (MDA-MB-175-VII cells; seribantumab 1 and 10 μmol/L, 12 days): growth was blocked for the entire 12-day period | cell growth over time (HBECp53-CD74-NRG1 cells): almost complete inhibition of growth | cell growth over time (HCC-95 cells): growth completely inhibited
